Where a chain is given by its changes, count along the chain named. Numbers in names are those of the source.
What was measured:
CCR5 = target: T1, CCR5 (Homo sapiens, UniProt P51681); assay: BRET CAMYEL cAMP sensor assay of ligand-induced Gαi signaling via CCR5; format: cell-based; details: n = 3; for Gαi signaling via CCR5 in DeltaSia cells compared to WT cells: HEK293 DeltaSia (ST3GAL1/2 KO); for Gαi signaling via CCR5 in sC cells compared to WT cells: HEK293 sC (C1GALT1 KO); for Gαi signaling via M1-CCR5 in DeltaSia and sC cells compared to WT cells: M1-tagged CCR5, HEK293 DeltaSia and sC; for Gαi signaling via CCR5 in DeltaSia and sC cells: HEK293 DeltaSia and sC, CCL5 oligomerization variants experiment; for Gαi signaling via CCR5 compared to WT CCL5: HEK293 WT cells
T1 construct: expressed in transfected cells; host or cells: CHO-K1, CHO-pgsB618 (GAG-minus), HEK293 WT / DeltaSia / sC
T1 sequence (P51681 whole entry): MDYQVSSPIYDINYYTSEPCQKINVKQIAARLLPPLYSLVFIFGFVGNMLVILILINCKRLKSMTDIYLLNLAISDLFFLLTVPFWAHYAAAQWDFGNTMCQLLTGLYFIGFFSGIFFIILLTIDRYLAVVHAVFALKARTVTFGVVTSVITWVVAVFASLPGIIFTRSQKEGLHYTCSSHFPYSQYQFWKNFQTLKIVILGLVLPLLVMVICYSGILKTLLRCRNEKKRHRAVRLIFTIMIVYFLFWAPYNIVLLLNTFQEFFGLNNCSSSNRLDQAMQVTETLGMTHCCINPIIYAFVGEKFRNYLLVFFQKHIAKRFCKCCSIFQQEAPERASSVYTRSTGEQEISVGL
Experimental: (§1) For quantification of signaling initiated immediate downstream of receptor activation, we used the cAMP binding CAMYEL sensor to perform bioluminescence resonance energy transfer (BRET)-based assays. Shortly, in this assay increased receptor activation leads to an increase in BRET ratio. For detailed information see the Materials and Methods section.
(§2) In signaling assays testing the boosting ability of basic peptides, transfected cells were aliquoted into 96-well plates in the presence of 10 µM peptide or PBS vehicle. After R-Luc substrate addition, chemokines were added to reach final concentrations ranging from 0–100 nM (0, 0.1, 1, 10, and 100 nM) and forskolin was applied before reading emission at 475 and 525 nm.
(§3) BRET measurements of Gαi signaling and β-arrestin recruitment: Cells were seeded in 6-well plates (500,000 cells/well) and transiently transfected the following day. For BRET measurements of Gαi signaling, cells were transfected with vectors encoding the human chemokine receptors as indicated (160 ng/well) and the CAMYEL sensor (cAMP sensor, YFP-Epac-RLuc) (840 ng/well) using Lipofectamine (6 µL/well). Briefly, DNA was dissolved in 125 µL OPTI-MEM and Lipofectamine was dissolved in 125 µL OPTI-MEM. The DNA and Lipofectamine solutions were combined into a transfection mixture. The transfection mixture was added dropwise to cells incubated in OPTI-MEM (1 mL/well). Transfections were terminated after 5 h by adding 1 mL of fresh culture medium on top of the OPTI-MEM. The following day the cells were loosened from the plates in PBS with 5 mM glucose and subsequently aliquoted in white 96-well iso plates (~25,000 cells/well). When using C21TP variants and defense peptides (hBD2 and histatin), these were added to a final concentration of 10 μM/well, while an equal amount of PBS was added to control cells. The bioluminescence substrate coelenterazine was added to a final conc. of 5 µM. After 10 min, varying ligand concentrations were added. For BRET measurements of Gαi signaling, forskolin was added 5 min after the addition of the ligand, to a final conc. of 5 µM. The plates were kept in the dark at all times. A Perkin Elmer Envision machine was used for measuring the emission signals at 530 and 480 nm. The BRET signal is determined as the ratio eYFP (530 nm)/Rluc (480 nm).
(§4) BRET principle with CAMYEL: For quantification of signaling initiated immediately downstream of receptor activation, we used the cAMP binding CAMYEL sensor to perform bioluminescence resonance energy transfer (BRET) based assays. In this assay we measure changes in intracellular cAMP levels in response to receptor activation. Activation of chemokine receptors lead to a decrease in cAMP through inhibition of adenylate cyclase (AC). In the current setup we initially add forskolin that stimulates AC directly to induce an increase in intracellular cAMP, and we then measure the ability of a ligand (chemokine) to counteract the forskolin-induced increase in cAMP. The cAMP sensor (CAMYEL cAMP sensor, YFP-Epac-RLuc) carries the donor Renilla luciferase (Rluc) and the acceptor YFP. Coelenterazine is a substrate for Rluc that will emit light at around 475 nm upon enzymatic cleavage catalyzed by Rluc. When Rluc and YFP are in close proximity, the energy from the emitted light from coelenterazine can be transferred to YFP, resulting in an excitation of YFP, leading to a BRET signal around 525 nm. EPAC is a cAMP binding protein that changes conformation upon cAMP binding. During low cAMP concentrations, Rluc and YFP are near each other, and a strong BRET signal at 525 nm is obtained. When cAMP levels increase, cAMP will bind to EPAC, creating a conformational change, separating Rluc and YFP, reducing the BRET ratio, and increasing the emission from Rluc at 475 nm. Thus, by measuring the ratio between the cAMP-bound (475 nm) and the cAMP-free (525 nm) state of CAMYEL we obtain a measure of receptor activation. […]

CCR1 = target: T2, CCR1 (Homo sapiens, UniProt P32246); assay: BRET CAMYEL cAMP sensor assay of ligand-induced Gαi signaling via CCR1; format: cell-based; details: n = 3; for Gαi signaling via CCR1 in DeltaSia and sC cells: CCL5 oligomerization variants experiment; for Gαi signaling via CCR1 compared to WT CCL5: HEK293 WT cells
T2 construct: expressed in transfected cells; host or cells: CHO-K1, CHO-pgsB618 (GAG-minus), HEK293 WT / DeltaSia / sC
T2 sequence (P32246 1-355): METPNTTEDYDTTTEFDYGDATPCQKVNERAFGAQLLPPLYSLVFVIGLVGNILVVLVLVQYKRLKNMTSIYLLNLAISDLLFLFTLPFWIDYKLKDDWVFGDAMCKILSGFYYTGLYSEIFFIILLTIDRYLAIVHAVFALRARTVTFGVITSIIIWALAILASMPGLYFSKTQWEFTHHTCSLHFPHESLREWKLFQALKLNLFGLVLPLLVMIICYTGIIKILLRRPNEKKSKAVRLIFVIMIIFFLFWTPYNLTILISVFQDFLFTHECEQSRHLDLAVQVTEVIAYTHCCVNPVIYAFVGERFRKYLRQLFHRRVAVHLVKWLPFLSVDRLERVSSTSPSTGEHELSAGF
Experimental: as §1, §2, §3, §4

CCR5-1like = assay: BRET CAMYEL Gαi signaling via chimeric receptor M1-CCR5-1like; format: cell-based, human; details: HEK293 DeltaSia and sC, n = 3
Text: To finally determine if the lack of acidic amino acids in the CCR5 N-terminus can explain the dependency of this receptor on O-glycosylation for effective ligand interaction, we constructed a CCR5 receptor chimera, where the most acidic N-terminal region of CCR1 was inserted into the CCR5 N-terminus, creating the chimeric receptor CCR5-1like (Figure 7).
Figure 7 Receptor N-termini representing CCR1, CCR5, and the chimeric CCR5-1like. The CCR1 N-terminus contains a lot of acidic amino acids (outlined in red) in the form of aspartic acid (D) and glutamic acid (E), whereas CCR5 only contains a few. The chimeric receptor CCR5-1like that contains part of the CCR1 receptor N-terminus (ETTTDYDE) resembles CCR1 with regard to acidic amino acid content and spacing, but they are not the same.
as §3
as §4, with “nm.” for “nm. EPAC is a cAMP binding protein that changes conformation upon cAMP binding. During low cAMP concentrations, Rluc and YFP are near each other, and a strong BRET signal at 525 nm is obtained. When cAMP levels increase, cAMP will bind to EPAC, creating a conformational change, separating Rluc and YFP, reducing the BRET ratio, and increasing the emission from Rluc at 475 nm. Thus, by measuring the ratio between the cAMP-bound (475 nm) and the cAMP-free (525 nm) state of CAMYEL we obtain a measure of receptor activation.”

CCR2 = details: cited from earlier work
Text: The reliance on electrostatic interactions between basic amino acids in the chemokine and acidic regions in the receptor N-terminus for chemokine receptor binding is illustrated by a study carried out by Hemmerich et al.. To investigate the influence of charge, hydrophobicity, and aromaticity on binding of CCL2 to its cognate receptor CCR2, this group substituted all surface-exposed residues on CCL2 by alanine. […] In contr ...

naked CCR5 N-terminus = assay: Fluorescence polarization binding to FAM-labeled CCR5 N-terminal peptide; set-up: species or system human
Experimental: (§5) Fluorescence polarization (FP) assay: The carboxyfluorescein (FAM)-labeled peptides representing the CCR1 and CCR5 N-termini functioned as the probes for quantifying the interaction between the receptor N-terminus and C21TP^81-111. The probe was diluted in FP buffer (1:3, PBS:MilliQ) and 10 µL was added to a final concentration of 250 nM per well in a black 384-well plate (Corning). The C21TP^81-111 peptide (2 mM) was diluted using a two-fold dilution series; 30 µL of the peptide was added to each well to final concentrations ranging from 12.21 nM to 100 µM. Blanks containing 10 µL probe and 30 µL FP buffer were included. The plate was spun down at 1000 rpm for 1 min and the FP signal was measured on a Flex station using SoftMax Pro software 7.0. Each experiment was conducted in triplicate. The binding curves were generated by plotting the FP signal, expressed as millipolarization units (mP), against C21TP^81-111 concentration. The dissociation constant (Kd) value was calculated using GraphPad Prism 9.
(§6) Probes: • CCR1: (5,6-FAM)-[…], • CCR5: (5,6-FAM)-ADYQVSSPIYDINYYTSEP.

naked CCR1 N-terminus = naked CCR1 N-terminus (Homo sapiens, UniProt P32246); assay: Fluorescence polarization binding to FAM-labeled CCR1 N-terminal peptide; details: FAM-labeled CCR1 N-terminal peptide
Chain of naked CCR1 N-terminus (P32246 with tags, fused parts or gaps limits assumed): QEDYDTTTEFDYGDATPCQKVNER
Experimental: as §5, §6

[1] = CHO-K1 cells, 10 µM peptide, chemokine 0-100 nM

CCL3: human chemokine from Peprotech, overall acidic
Gαi signaling via CCR5 in DeltaSia cells compared to WT cells (CCR5): drastically reduced | Gαi signaling via CCR5 in sC cells compared to WT cells (CCR5): drastically reduced | Gαi signaling via M1-CCR5 in DeltaSia and sC cells compared to WT cells (CCR5): drastically reduced | Gαi signaling via CCR1 in DeltaSia and sC cells compared to WT cells (CCR1; HEK293 DeltaSia and sC): persists in DeltaSia and sC to almost the same high level as observed in WT cells | Gαi signaling via M1-CCR5-1like in DeltaSia and sC cells compared to WT cells (CCR5-1like): persists in DeltaSia and sC to almost the same high level as observed in WT cells

K35E: CCL2 with K35 substituted by glutamic acid (literature)
reduction of CCL2 binding to CCR2 by substitution in CCL2 (CCR2): ≥ 1600 fold

R24A: CCL2 with R24A substitution (literature)
reduction of CCL2 binding to CCR2 by substitution in CCL2 (CCR2): ~ 30 fold

R24E: CCL2 with R24 substituted by glutamic acid (literature)
reduction of CCL2 binding to CCR2 by substitution in CCL2 (CCR2): ≥ 1600 fold

histatin1: human host defense peptide, less basic than hBD2, from Caslo (DSHEKRHHGYRRKFHEKHHSHREFPFYGDYGSNYLYDN) [reference compound]
binding to the naked CCR5 N-terminus (naked CCR5 N-terminus): neither of the HDPs bound | boosting of CCL5-induced Gαi signaling via CCR1 (CCR1; [1]): also boosted the potency of both these chemokines, although to a lesser extent | boosting of CCL7-induced Gαi signaling via CCR1 (CCR1; [1]): also boosted the potency of both these chemokines, although to a lesser extent | effect on CCL3-induced Gαi signaling via CCR1 (CCR1; [1]): not affected | binding to the naked CCR1 N-terminus (naked CCR1 N-terminus): bind in a dose-dependent manner

B1: CCL8: human chemokine from Peprotech (protein, UniProt P80075 24-99, looked up)
C-C motif chemokine 8: QPDSVSIPITCCFNVINRKIPIQRLESYTRITNIQCPKEAVIFKTKRGKEVCADPKERWVRDSMKHLDQIFQNLKP
Gαi signaling via CCR5 in DeltaSia cells compared to WT cells (CCR5): drastically reduced | Gαi signaling via CCR5 in sC cells compared to WT cells (CCR5): drastically reduced | Gαi signaling via M1-CCR5 in DeltaSia and sC cells compared to WT cells (CCR5): drastically reduced | Gαi signaling via M1-CCR5-1like in DeltaSia and sC cells compared to WT cells (CCR5-1like): persists in DeltaSia and sC to almost the same high level as observed in WT cells

B2: E26A: mutant version of CCL5, obligate tetramer, expressed in E. coli (protein, UniProt P13501 24-91, looked up, variant E26A)
C-C motif chemokine 5: SPYSSDTTPCCFAYIARPLPRAHIKAYFYTSGKCSNPAVVFVTRKNRQVCANPEKKWVREYINSLEMS
Gαi signaling via CCR5 in DeltaSia and sC cells (CCR5): very low | Gαi signaling via CCR5 compared to WT CCL5 (CCR5): WT-like signaling | Gαi signaling via CCR1 in DeltaSia and sC cells (CCR1; HEK293 DeltaSia and sC): remains high | Gαi signaling via CCR1 compared to WT CCL5 (CCR1): WT-like signaling

B3: E66A: mutant version of CCL5, obligate dimer, expressed in E. coli (protein, UniProt P13501 24-91, looked up, variant E66A)
C-C motif chemokine 5: B2 C-C motif chemokine 5 with A26E, E66A
modifications: also: obligate dimer
notes: mutant version of CCL5, obligate dimer, expressed in E. coli
Gαi signaling via CCR5 in DeltaSia and sC cells (CCR5): very low | Gαi signaling via CCR5 compared to WT CCL5 (CCR5): WT-like signaling | Gαi signaling via CCR1 in DeltaSia and sC cells (CCR1; HEK293 DeltaSia and sC): remains high | Gαi signaling via CCR1 compared to WT CCL5 (CCR1): WT-like signaling

Source: publication PMC11477141, “Chemokine Receptor N-Terminus Charge Dictates Reliance on Post-Translational Modifications for Effective Ligand Capture and Following Boosting by Defense Peptides” (International Journal of Molecular Sciences, 2024)
